The text below walks through data of a protein production outcome set (Wang et al. 2014).

The data set is described as follows: label from the status in PepcDB records.
Consider “MGICVSFRREDSNSSPTVKIVTVNGDLREYNVPVIASQVLEAESAAAYSSSSSSRPSSYFICDSDSLYYDDFIPAIKSEEPLQADQIYFVLPISKRQSRLTASDMAALAVKASVAIQNSVKKESRRRKKVRISPVMMLTGSNDSVNGNGSETTVKKGRPFVSKTAPVKASSGINRSGSVRNLRRYTSKRAKLAVRSFRLKLSTIYEGSVV”, for which the protein production entry is on record as “failed”.

Consider “MLFPLILQRPMLSTPTLPRKTFAFLLGGVLLVGLVACGSSTPMAPASSASSALESAAADSLLRQVKTQIREATDEGSLDSLKQARAWAKQATGGDRAALAHYYAALADYRMSNRLPEEDEARRGRVIEDAIGHLKRATEINGTMADAWALLSGYYGQMMGMNPMQGMSLGPKANEAMKRAKEHGPNNPRVWIIDGTSDFYTPGMFGGDKEKALTKFEKAARLAEQGSPDDPLMPGWGHAEAHAWVGVAHMEAERYDPARTAFEAALDLNPDYGWVRSVLLPRLEQQAG”, for which the protein production entry was “failed”.

With “STMTVIKDYYALKENEICVSQSEVVQVLAVNQQNMCLVYQPASDHSPAAKGWVPGSILAPF”, the protein production result is on record as “not failed”.

For the sequence “MKIKGTEKVPILIFLGALAIGIAFLPPENSLTYDGALYINIARSLTKSVTSFTYQGIYMMYRPPLYPYTLSIFFRVFSSNHLLIARLVSVFSFALTSVLVYLLTLEMFRDSVKGIIASLFYIFNPLAFTMAGRELVHSEFTFFYTLAIYLLYTGKVRKSNTRIYLSFIAAGLAILTRYTGLSIVLVFLTYLWLTEDWNWVRRREYLIGFALLFLTLLPWLYMGHLYYGGFFRPFKIASKVVTLDRPVSAFDFIKMVIGDMGFLLPALAVLGFFRVKKDENGWLILSWLVMGGGGILTVTHKESRFITFLSPVIAILASEGIYLLSNLTPRIRRNNIVAVILALLLLIPIGMKADNLRDRWSIVGVYDSNVVRYVSEHYDGKKILVSPYLYTIAGYYYPNAEIDMILNRKEIVEKIAKGYYDVIIHKDPNVYLNIEESGNYVLVKEFHGGRFKVYINRRSLAK”, the protein production result is “failed”.

Consider “MVTKLALLGAGRIGKVHAKAITTDSRAKLVAVVDAMAGAAEAIAREAQCKVSTIDEVLADKTIDAVIICTPTNTHADLIERFARAGKAIFCEKPVDLDVARAEACAKVVEETGAKVMLGFNRRFDPHFQAVHKAIEDGRIGKVEMVTITSRDPGPPPAEYIKVSGGIFRDMTIHDFDMARFLLGEEVESVFATGSVLVNPEIGALGDFDSASIILTTKSGRQAIISNSRRATYGYDQRIEVHGSEGSAAAENQRPVSIEIANADGYTRPPLHDFFMTRYTTAYAAEIAAFIDSIENNVSPSPSIKDGLIALKLADAALKSATSKTVVTIG”, for which the protein production entry is listed as “failed”.

Consider “MRDLLNDLSEGLSHPDPILRAQIQMQKPLPKRFYKDVTVADVEEGGFTILLDGKPLRTPAKKPLVAPSRALADLLRDEWDAQKEVVNPVVMPVSRHVNTAIDGIASDTQAVFEDILRFSSSDLLCYRAGDPEALVARQTDYWDPVLDWATNVLGARFILVEGVMHRDQPREAIAAFAVTLKKYDTPIALAALHTMTSLTGSAILALALAEGELTLEEAWALAHLDEDWTAEQWGEDEEALERRAVRLIDMRAALNVLESLKSASLEHHHHHH”, for which the protein production result is listed as “failed”.

Consider “MKHIFRFKNYFFHSKNNQLKRLLLVAFLLTGLWLTPQQGRVWGQEQPFVVKKIDLSQYGAAASIAQDPESKQLAIGFYNCNLIFLDANLNQDQKNNLFLKNCKRFFRARYGEFGSIPFLISSIYTGSSVLHNSQENFDIPLHKAAVTDSLILQDYLLSSSDDGSVTISRLISLSPPEVNTFKLYQSIGVARNLAFTHTSNPEVGKVAVSYDTGEIAIFNIDHDTARNPVEPSTFKTINSRINTFKFTPDGAKLLIGYFTGELVELDLATGAHKTLAKVNSWLNALDINSENLVAIADDQGFVKIISLTTGKIVEEHKISTTGINAVIFTDDQTVVAADATGMIYQGKLAGSN”, for which the protein production result is listed as “failed”.

For “MLSFRARLFLAFALLWLLFLGGGWYLAGRSVDQALKRRLEATLAQDALRAAEAYQKGQAGALLTTGGVYLHLYAQDGTPIALTRPDHRLPPERLRRAGPTPEVLWEEGFAAALVATPLGLLVLTAETSPIEAALEALREALLRAFLLLSPLGLALVYLTARLAARPLEAVAREITRRSPDRLDPVPHRLPQDEFGRMVEAVNALLQALKEAKERERAFLAEASHELRTPLTVLLGHLDRLGRNPQDLEALRTARATAERMRRLVEDLLALARGEVERNLNLHIVDLGEVAREAALEHGVAAEAESAEVLGDPDRLLQLLRNLVANAVRAAGKEGVRVRVRREADHALLEVEDSGPGIPEDLLPRLFQRFARGPGGGTGLGLAIAHAIAKAHGGEIAVESRPGRTVFRVRLPLLEEEA”, the protein production result was “failed”.

For “MLSFIAVGLLARLAVARGEVKYGCTKHELRRLSRRGRLLLVVLWPLVAAFLLAIFPNVPSRNIFGDLILIIAAVLPAALLAFLVNAMLERTRFKVVPRRSPKAHSR”, the protein production entry is recorded as “failed”.

On to “MEHKISEPNARVDVADVLRGLAVMGIIILHSIEHFNFYSFPDTVPCEWMKFTDKAIWNGLFFVFSNKAYAIFALLFGFSFYIQDNNQQRRGKDFRLRFIWRMALLFIIGQFNAAFFTGEILTMYAMLGLILPLSCRLSDRSIAIFATLLIIQPIDWCKVIYALCNPDYVAGPGLASHYFGIAFDVQKNGTFLETIRMNLWEGQLANLTWALEHGRILQTPALFLFGMLVGRKGLFLYSEQNEQHWLKALGISLICFFPLYGLNNMLPEFITRNAIRVPLQLIISSLSNLSFMVLLVSGLLITFYRIKDRRFLMRFTSYGKMSLTNYIGQSVIGSLLFYHWGFELGRFLGITYSFFFGILFVLLQMAFCSWWLSHFKHGPFEGLWKRLTWIGNNKRK”, for which the protein production entry was “failed”.

With “MNGTALNWLELCRTVGPCLRPGGTALTDRALEVCNLSADSLIADVGCGAGGTLYHLEQIGFRRLVGLDPSETLLGDAAPRLETARLIRGEAATIPLRSATVDLLLCECVLSVLPGRSAPLREFARVVKDGGYLVVSDVFSTAGDEATGQAGGLLTRKELLAAVAGNGFTLLRWETHDRLLKEFAVRMILAGECLPDAWKGGTERKGEAARGGLGYFLMVARKAEDPLP”, the protein production entry is recorded as “failed”.

Take “MKLPHALSHWFPHKYAIDAKRLGDERTLAWSNLGYWADTSDYKTACRQLADGLADAVQLSSTDRLLDLGCGQGASLQHWVEHYQIQSLCAVELQLDHVKRIQHAFPQLEKMIQGSFLDLRPDTFKPHFDVVMCIDAAYHSALTSFLTAVGSVLKSKGRLGFHYLLLSEKWTQLPVWQRQKYKYLLKAADVELDDLADVTTTEHTLRAQGFDQIQIVDMTTDVFGGFARYMASRPYHSKQNIDERKIRATAKLCQYLCDQGIVRYVQIAATKQ”: the protein production result is recorded as “failed”.

Regarding “MTPSPHDLLHCGMNSQDRDETNGDRQRLVRVALGQEDGDLLVRGAQVVQPVTREVYAADVLVAGGRVAAVGPDLPARARRTVQARGAYLAPGFIDGHIHIESSLLTPASFAAAVLPHGTTAVVAEPHEIVNVLGPAGLNWMLGAGRTSGLRVYASAPSCVPASEFEQGGARVDAAQVAEMLARPGVLGLAEMMNYPGVLGGDAGVWDILNAGRRSGKRLDGHAAGLGGRELLAYAAAGLHSDHEATTPEEARERLRAGLWLMVREGSAARNLAALLPVLRDLPRRALLVSDDVSVDELLELGHLDRLLRTCVAGGLHPADAVALVTSQPAEYWGLHDLGVIAPGYHADFVLLRDLQHFGVLETFVGGEEARPGGETPPLPGGGVDLGPGWDGATFDPPAHWPTLQMFPDQIVTGRAAPGSGDARLVVADRYGRGEWSSCWTLGSGLRGGTLGISILHDAHQVALLGGSDADLRAAGRALERLGGGIVLVVDGEVREQLPLPYAGLMTDHAPAEAAAALGRVTAAARLLGCMPAGRL”, the protein production entry is recorded as “failed”.

Turning to “MSLDSDPDTLVVHTQLGTTAPGSPTYLAAVDRFREENPGVKIKNLVNGDDLAQVYETSRLARKEADVVMVNLYDKTLAWTDVGATVDVKPYLDDWGLRGRVLPAALADWTDDEGRVRAFPYFATNWPVAYNRALLDRAGVDAIPTTGDQLIAAARKLRAKGIAPVTVGGNDWTGQKLLAQIIQTFLSQDEARHVYSTGDFGVRGARLGIEYFAHLRDAGVFADKAQGLTSDSMTTQFNTEEAAVQSAMSSALAKVPEKVAGHTEVGGWPLADGAAHDGPTVIRAYTLIGFWISPNGVRKIEQVEKFLRFMYRPDVVARFVTESGRDMALRTDAVSTGFPLVGAAQRLGSEVSQVLLPDVYVPPAAAQPLITATSTSFTRGTSPARVRAALESAYRSVEGHHHHHH”, the protein production entry is on record as “not failed”.

Take “MKTIIRQPQLYRFLKYCNESNLDKTVLDCGAGGDLPPLSIFVEDGYKTYGIEISDLQLKKAENFSRENNFKLNISKGDIRKLPFKDESMSFVYSYGTIFHMRKNDVKEAIDEIKRVLKPGGLACINFLTTKDERYNKGEKIGEGEFLQLERGEKVIHSYVSLEEADKYFKDMKVLFKEDRVVERINDGLKIKQGYVDYIAEKFSKSIL”: the protein production entry is “not failed”.

Regarding “MGHHHHHHSHMAKTYDYLFKLLLIGDSGVGKTCVLFRFSEDAFNSTFISTIGIDFKIRTIELDGKRIKLQIWDTAGQERFRTITTAYYRGAMGIMLVYDITNEKSFDNIRNWIRNIEEHASADVEKMILGNKCDVNDKRQVSKERGEKLALDYGIKFMETSAKANINVENAFFTLARDIKAKMDKKLEGNSPQGSNQGVKITPDQQKRSSFFRCVLL”, the protein production result is reported as “not failed”.

For the sequence “EKGLEIAQERKARDEGWGDSIATMEMILKNAQGESSTRLMRLKSLEVEGDGDKGLTIFDQPRDVTGTAFLNHSHTIGADDQWLYLPALKRVKRISSRNKSGPFMGSEFAYEDLSSFEIEKYRFNHLKDEKFNGQDVFVLEQIPTDKNSGYTKQVVWLDKAHYRPLKVEFYDRKGALLKTLTFANYKQYLDKYWRAHTMAMTNHQTGKSTELNTSDLRFQTGLEENDFNKNVLKR”, the protein production entry was “not failed”.

On to “MENGLWEVLGSKGLLKKHEFIRILVQCLYSLGFKNSASCLEFESKILYKTADSEFLEKQVLSGNWDSCVQVLDRIFDNSMDDTRNTALYLVFKQCLLEYLKRGDVSLALNVLRKQAPLLRMGKEKIHRLACDIVYSKEMESGEVDNCLVLDLRRKLLVELEKLIPLPIVIPERRLEHLVETAVMDQIDTCMYHNSCDAVSLYKDHCCGRDQIPSETVQILVAHKNEVWFVQFSNSGKYLATASSDCTAIIWKVLDDNKVELKHTLESHQNPVSFVSWSPDDTKLLTCGNAEVLKLWDVDTGVLRHTFGNNNTGFTVSSCAWFPDSTRLVCGSSDPERGIVMWDTDGNEIKAWRGTRIPKVVDLAVTPDGESMITVFSDKEIRILNLETKVERVISEEQPITSLSISGDGKFFIVNLSCQEIHLWDLAGEWKQPLKFSGHRQSKYVIRSCFGGLDSSFIASGSEDSQVYIWNLKNTKPLEVLSGHSMTVNCVSWNPKNPRMLASASDDQTIRIWGPGKPNKPLN”, for which the protein production result is listed as “failed”.

“MAVTLRLTNSLAFSSHPLTSSVLFRGSKSIGTITKIASTIRTVKMAAFAGSDSETTSSTSRVIDSHLHIWASPQEAETYPYFPGQEPTLTGDVNFLLKNMEEARVDGALIVQPINHKFDHSLVTRSRPF”: the protein production entry is listed as “failed”.

Regarding “MGSLVHVKEATVITPSDQTPSSVLSLSALDSQLFLRFTIEYLLVYPPVSDPEYSLSGRLKSALSRALVPYFPFSGRVREKPDGGGGLEVNCRGQGALFLEAVSDILTCLDFQKPPRHVTSWRKLLSLHVIDVLAGAPPLVVQLTWLRDGGAALAVGVNHCVSDGIGSAEFLTLFAELSKDSLSQTELKRKHLWDRQLLMPSPIRDSLSHPEFNRVPDLCGFVNRFNAERLVPTSVVFERQKLNELKKLASRLGEFNSKHTSFEVLSAHVWRSWARSLNLPSNQVLKLLFSVNIRDRVKPSLPSGFYGNAFVVGCAQTTVKDLTEKGLSYATMLVKQAKERVGDEYVRSVVEAVSKERASPDSVGVLILSQWSRLGLEKLDFGLGKPVHVGSVCCDRYCLLLPIPEQNDAVKVMVAVPSSSVDTYENLVTSPNA”, the protein production result was “failed”.
